Test results published in US9809835B2, “Quantitative control of sialylation” (Roche Diagnostics Operations, Inc., priority 2013, dated 2017).

T1: Δ89 hST6Gal-I (Homo sapiens, UniProt P15907)
T1 construct: the construct of Epo-AP-Δ89 hST6Gal-I was secreted without the N-terminal amino acids AP; Erythropoietin signal peptide (Epo) (N, cleaved yes); AP spacer (two amino acids) (N, cleaved yes); made in house; host or cells: HEK293 (transient gene expression, secreted)
T1 sequence (P15907 90-406): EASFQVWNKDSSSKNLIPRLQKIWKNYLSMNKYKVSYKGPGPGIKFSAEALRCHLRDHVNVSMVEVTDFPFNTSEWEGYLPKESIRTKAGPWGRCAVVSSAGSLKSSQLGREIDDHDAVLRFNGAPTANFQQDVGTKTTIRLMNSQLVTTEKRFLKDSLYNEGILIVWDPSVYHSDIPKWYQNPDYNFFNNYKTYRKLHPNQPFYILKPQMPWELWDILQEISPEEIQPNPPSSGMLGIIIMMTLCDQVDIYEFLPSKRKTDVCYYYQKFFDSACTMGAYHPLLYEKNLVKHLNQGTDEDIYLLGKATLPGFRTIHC


Legend:
[1] = target: T1, Δ89 hST6Gal-I; experiment: Inhibition of sialidase activity of Δ89 hST6Gal-I by CTP; assay type: biochemical
Protocol: The compound cytidine triphosphate (CTP) is a potent inhibitor of sialyltransferases (Scudder P R & Chantler E N B B A 660 (1981) 136-141). […] After 7 h of incubation the G2+2SA content was 94%. […] At different times samples were taken and the content of G2+0SA, G2+1SA and G2+2SA was determined by mass spectrometry. […] After 72 h of incubation 73% of G2+2SA were still present.

[2] = test system: MAB<IL-1R>; experiment: Sialylation of humanized monoclonal antibody MAB<IL-1R> using Δ89 hST6Gal-I, glycan content by mass spectrometry; assay type: biochemical
Protocol: A highly galactosylated humanized monoclonal antibody IgG4 MAB<IL-1R>(WO 2005/023872) was used in sialylation experiments. […] The samples were incubated at 37° C. for a defined time. To stop the reaction the samples were frozen at −20° C. For mass analysis 100 μl denaturing buffer (6 M guanidinium chloride) and 30 μl TCEP (0.1 mM, diluted in denaturing buffer) were added to the samples and the samples were incubated at 37° C. for 1 h. The sample were buffered in electrospray-medium (20% ACN, 1% FA) using pre-equilibrated illustra™ Nap5-Columns (GE-Healthcare). Samples were analyzed by electrospray ionization mass spectrometry and the content of G2+0SA, G2+1SA and G2+2SA N-glycans was determined. A Micromass Q-Tof Ultima and a Synapt G2 HDMS device (Waters UK) were used, the software used was MassLynx V 4.1. To determine the kinetics of the sialylation the reaction was incubated up to 72 h.

Molecule | degradation of G2+2SA caused by the sialidase activity ([1]; CTP 0.67 mM, compared to inhibitor-free conditions) | G2+2SA still present ([1]; after 72 h of incubation, CTP added after 7 h, final concentration 0.67 mM) | content of the bi-sialylated form G2+2SA ([2]; after 2 hours of incubation, 37° C., 30 μg enzyme/300 μg MAB<IL-1R>, CMP-NANA donor) | G2+2SA content ([2]; after 7 h of incubation, before addition of CTP (Example 11)) | G2+1SA content ([2]; after an incubation of 48 h, 37° C., 30 μg enzyme/300 μg MAB<IL-1R>, CMP-NANA donor) | dominant glycan species of MAB<IL-1R> (mass spectrum) ([2]; t=8 h) | dominant glycan species of MAB<IL-1R> (mass spectrum) ([2]; t=48 h)
Nc1ccn([C@@H]2O[C@H](COP(=O)(O)OP(=O)(O)OP(=O)(O)O)[C@@H](O)[C@H]2O)c(=O)n1 [CTP, cytidine triphosphate] | significantly reduced | 73% | – | – | – | – | –
Δ89 hST6Gal-I: N-terminally truncated human β-galactoside-α-2,6-sialyltransferase I, positions 1 to 89 of SEQ ID NO:1 deleted; amino acid sequence of SEQ ID NO:2 (protein, delta89 truncation variant of hST6Gal-I) EASFQVWNKDSSSKNLIPRLQKIWKNYLSMNKYKVSYKGPGPGIKFSAEALRCHLRDHVNVSMVEVTDFPFNTSEWEGYLPKESIRTKAGPWGRCAVVSSAGSLKSSQLGREIDDHDAVLRFNGAPTANFQQDVGTKTTIRLMNSQLVTTEKRFLKDSLYNEGILIVWDPSVYHSDIPKWYQNPDYNFFNNYKTYRKLHPNQPFYILKPQMPWELWDILQEISPEEIQPNPPSSGMLGIIIMMTLCDQVDIYEFLPSKRKTDVCYYYQKFFDSACTMGAYHPLLYEKNLVKHLNQGTDEDIYLLGKATLPGFRTIHC | – | – | 88% | 94% | 71% | G2+2SA is the dominant form | G2+1SA is the most abundant species
